Results as given in publication PMC9671113.

How the values were obtained:
[1] = biological target: trimeric pre-fusion SARS-CoV-2 spike glycoprotein (pre-S) (SARS-CoV-2 (Wuhan-Hu-1 strain) | Phage T4) (UniProt P0DTC2); assay: SEC
[2] = biological target: trimeric pre-fusion SARS-CoV-2 spike glycoprotein (pre-S) (SARS-CoV-2 (Wuhan-Hu-1 strain) | Phage T4) (UniProt P0DTC2); assay: negative-stain electron microscopy (called Cryo-EM by the paper)

Substance: trimeric pre-fusion SARS-CoV-2 spike glycoprotein (pre-S) (from UniProt P0DTC2 14-1201) (domain or fragment)
- stoichiometry N [1]: 3
- stoichiometry N [2]: 3
